Test results reported in PMC6698656, “Structural insights into dimethylation of 12S rRNA by TFB1M: indispensable role in translation of mitochondrial genes and mitochondrial function”.

Key:
Conditions in all cases: protein: recombinant; tags: His6-MBP N-terminal, removed by TEV; label: 5'-FAM; hairpin
hsTFB1M V225A = hsTFB1M V225A (Homo sapiens, UniProt Q8WVM0 28-346, V225A); experiment: EMSA; affinity not significantly changed vs WT; EMSA: 50 mM Tris-HCl pH 8.0, 25 mM NaCl, 100 nM RNA, TFB1M 0-2 mM as printed (legend suggests uM), 37 C 30 min; 6% native PAGE, 0.5x TBE
hsTFB1M F144A = hsTFB1M F144A (Homo sapiens, UniProt Q8WVM0 28-346, F144A); experiment: as above
hsTFB1M N36A = hsTFB1M N36A (Homo sapiens, UniProt Q8WVM0 28-346, N36A); experiment: as above
hsTFB1M Q35A = hsTFB1M Q35A (Homo sapiens, UniProt Q8WVM0 28-346, Q35A); experiment: as above
hsTFB1M I152A = hsTFB1M I152A (Homo sapiens, UniProt Q8WVM0 28-346, I152A); experiment: EMSA; affinity not impaired; EMSA: 50 mM Tris-HCl pH 8.0, 25 mM NaCl, 100 nM RNA, TFB1M 0-2 mM as printed (legend suggests uM), 37 C 30 min; 6% native PAGE, 0.5x TBE
hsTFB1M E246A = hsTFB1M E246A (Homo sapiens, UniProt Q8WVM0 28-346, E246A); experiment: as above
hsTFB1M R195A = hsTFB1M R195A (Homo sapiens, UniProt Q8WVM0 28-346, R195A); experiment: as above
hsTFB1M Q177A = hsTFB1M Q177A (Homo sapiens, UniProt Q8WVM0 28-346, Q177A); experiment: EMSA; affinity improved to some degree; EMSA: 50 mM Tris-HCl pH 8.0, 25 mM NaCl, 100 nM RNA, TFB1M 0-2 mM as printed (legend suggests uM), 37 C 30 min; 6% native PAGE, 0.5x TBE
hsTFB1M E179A = hsTFB1M E179A (Homo sapiens, UniProt Q8WVM0 28-346, E179A); experiment: as above

Measured: binding result

Sequence of hsTFB1M Q35A (Q8WVM0 28-346 Q35A): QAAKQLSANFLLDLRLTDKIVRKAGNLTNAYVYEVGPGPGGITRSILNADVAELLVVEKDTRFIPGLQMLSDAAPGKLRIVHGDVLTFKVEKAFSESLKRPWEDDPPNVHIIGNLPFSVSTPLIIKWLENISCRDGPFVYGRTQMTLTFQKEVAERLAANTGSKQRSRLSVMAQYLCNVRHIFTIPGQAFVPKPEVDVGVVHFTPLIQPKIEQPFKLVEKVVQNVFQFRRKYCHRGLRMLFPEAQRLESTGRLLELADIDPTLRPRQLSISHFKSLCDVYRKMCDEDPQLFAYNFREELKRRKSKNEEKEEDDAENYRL
Sequence of hsTFB1M E179A (Q8WVM0 28-346 E179A): as the sequence (Q8WVM0 28-346 Q35A) above, with A8Q, E152A counted along it
Sequence of hsTFB1M V225A (Q8WVM0 28-346 V225A): as the sequence (Q8WVM0 28-346 Q35A) above, with A8Q, V198A counted along it
Sequence of hsTFB1M Q177A (Q8WVM0 28-346 Q177A): as the sequence (Q8WVM0 28-346 Q35A) above, with A8Q, Q150A counted along it
Sequence of hsTFB1M N36A (Q8WVM0 28-346 N36A): as the sequence (Q8WVM0 28-346 Q35A) above, with A8Q, N9A counted along it
Sequence of hsTFB1M I152A (Q8WVM0 28-346 I152A): as the sequence (Q8WVM0 28-346 Q35A) above, with A8Q, I125A counted along it
Sequence of hsTFB1M F144A (Q8WVM0 28-346 F144A): as the sequence (Q8WVM0 28-346 Q35A) above, with A8Q, F117A counted along it
Sequence of hsTFB1M R195A (Q8WVM0 28-346 R195A): as the sequence (Q8WVM0 28-346 Q35A) above, with A8Q, R168A counted along it
Sequence of hsTFB1M E246A (Q8WVM0 28-346 E246A): as the sequence (Q8WVM0 28-346 Q35A) above, with A8Q, E219A counted along it

GGUAAGUGUACUGGAAAGUGCACUUGCC (structured_RNA) [5'-FAM h45 RNA (WT)]
binds: all assays above
